# According to FireProtDB (doi:10.1093/protein/14.12.967):
# Several values for one entry are separate records, joined by “and”; a condition that tells them apart may be missing. Identical values can stand only once.
# B1: Lysozyme C, milk isozyme wild type, P81708 (protein)
# chain: KIFSKCELARKLKSMGMDGFHGYSLANWVCMAEYESNFNTQAFNGRNSNGSSDYGIFQLNSKWWCKSNSHSSANACNIMCSKFLDDNIDDDIACAKRVVKDPNGMSAWVAWVKHCKGKDLSKYLASCNL
# Settings: Canis lupus familiaris, Thermal, DSC, reversible: yes, whole UniProt chain shown
# [1] = pH 1.95, glycine hydrochloride 50 mM, transition: 3
# [2] = pH 4.5, 66.4 °C, sodium acetate 50 mM
protein,measurement,setting,value
B1,Tm,[1],60 °C
same,unfolding enthalpy (calorimetric),[1],29.6 kcal/mol
same,unfolding enthalpy (calorimetric),"pH 2.74, glycine hydrochloride 50 mM, transition: 3",21.3 kcal/mol and 37.8 kcal/mol
same,unfolding enthalpy (calorimetric),"pH 3, glycine hydrochloride 50 mM, transition: 3",31.8 kcal/mol and 36.9 kcal/mol
same,unfolding enthalpy (calorimetric),"pH 3.24, glycine hydrochloride 50 mM, transition: 3",35.6 kcal/mol and 43 kcal/mol
same,unfolding enthalpy (calorimetric),"pH 3.46, glycine hydrochloride 50 mM, transition: 3",37.7 kcal/mol and 42 kcal/mol
same,unfolding enthalpy (calorimetric),[2],30.9 kcal/mol
same,unfolding free energy,[2],2.15 kcal/mol
same,unfolding enthalpy (calorimetric),"pH 4.5, sodium acetate 50 mM, CaCl2 10 mM, transition: 3",67.4 kcal/mol and 44.4 kcal/mol
same,unfolding enthalpy (calorimetric),"pH 4.5, sodium acetate 50 mM, transition: 3",42.1 kcal/mol and 44.4 kcal/mol
